From patent publication US20080267971A1 (published 2008)

T1: human Angiopoietin-2 (human, UniProt O15123 19-496)
T1 construct: Mostly bought recombinant protein (R&D Systems 623-AM/CF, 623-AN; biotinylated BT623) or supernatant of transfected 293F cells; also called Ang-2; rhAng-2
T1 sequence: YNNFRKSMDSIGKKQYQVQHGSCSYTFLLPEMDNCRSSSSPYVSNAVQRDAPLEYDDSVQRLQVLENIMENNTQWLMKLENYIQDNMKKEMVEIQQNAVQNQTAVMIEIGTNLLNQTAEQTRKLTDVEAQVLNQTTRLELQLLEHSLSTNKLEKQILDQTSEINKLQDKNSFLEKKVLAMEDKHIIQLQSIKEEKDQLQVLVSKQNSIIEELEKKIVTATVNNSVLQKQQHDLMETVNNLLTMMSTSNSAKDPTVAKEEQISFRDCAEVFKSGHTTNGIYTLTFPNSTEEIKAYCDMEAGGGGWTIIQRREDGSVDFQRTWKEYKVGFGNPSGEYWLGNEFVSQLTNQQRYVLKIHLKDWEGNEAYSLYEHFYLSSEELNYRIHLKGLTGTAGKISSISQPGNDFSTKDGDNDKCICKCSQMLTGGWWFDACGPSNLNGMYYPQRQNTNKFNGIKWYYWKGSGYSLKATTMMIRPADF

T2: mouse Angiopoietin-2 (mouse, UniProt O35608 19-496)
T2 construct: Used as conditioned medium of transfectants; also called mAng-2; mouse Ang-2
T2 sequence: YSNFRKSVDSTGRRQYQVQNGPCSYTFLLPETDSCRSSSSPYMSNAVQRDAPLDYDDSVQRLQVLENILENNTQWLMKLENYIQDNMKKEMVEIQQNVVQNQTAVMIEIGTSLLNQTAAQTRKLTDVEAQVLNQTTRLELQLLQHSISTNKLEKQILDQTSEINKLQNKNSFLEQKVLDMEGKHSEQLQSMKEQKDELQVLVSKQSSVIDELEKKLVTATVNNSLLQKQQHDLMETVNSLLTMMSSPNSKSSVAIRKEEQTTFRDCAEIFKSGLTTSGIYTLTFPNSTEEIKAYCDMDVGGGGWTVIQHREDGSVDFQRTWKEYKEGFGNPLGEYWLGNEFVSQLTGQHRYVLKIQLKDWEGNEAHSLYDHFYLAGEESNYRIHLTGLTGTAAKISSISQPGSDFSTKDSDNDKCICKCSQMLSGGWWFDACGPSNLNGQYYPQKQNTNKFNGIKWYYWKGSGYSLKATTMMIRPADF


Experiments:
human Angiopoietin-2 [1] = biological target: T1, human Angiopoietin-2; experiment: competition ELISA: biotin-Ang-2 on coated Tie2/Fc
Method: 96-well Nunc Immplates™ were coated with 100 μl of recombinant human Tie2/Fc fusion protein (R&D Systems, Inc., Cat. No. 313-TI-100) at 4 μg/ml by incubating overnight at 4° C. The plates were washed four times using Phosphate Buffer Saline (PBS) with a Skan™ Washer 300 station (SKATRON). The wells were blocked by 100 μl of ABX-blocking buffer (0.5% BSA, 0.1% Tween, 0.01% Thimerosal in PBS) for 1 hour.
The plates were incubated at room temperature for two hours before the unbound molecules were washed off. […] After washing twice, the bound Streptavidin was detected by HRP substrate (R&D Systems, Cat. No. DY998). The plates were incubated for 30 minutes before 450 stop solution (100 μl/well, BioFX, Cat# BSTP-0100-01) was added to terminate the reaction. The light absorbance at 450 nm was determined by a Spectramax Plus reader.
Each concentration of the mAb was tested in duplicate. The concentration-response relationship was found by curve fitting using Graphpad Prism™ graphic software (non-linear, Sigmoid curve). The maximal inhibition (efficacy) and IC₅₀ (potency) were calculated by the software.

mouse Angiopoietin-2 = biological target: T2, mouse Angiopoietin-2; experiment: ELISA on plates coated with conditioned medium of HEK293F/mouse Ang-2 transfectants, mAb titrated, detection with anti-human Fc-HRP
Method: The plates were incubated at 4° C. overnight, followed by washing four times using Phosphate Buffer Saline with a Skan Washer 300 station (SKATRON). The wells were blocked by 100 μl of ABX-block buffer (0.5% BSA, 0.1% Tween, 0.01% Thimerosal in PBS) for 1 hour. […] The mAbs and each of their dilutes were tested in duplicate. After washing twice, the bound mAbs were detected by goat anti-human Fc-HPPO-conjugated antibody (Caltag, Code H10507) at 1/1,000 dilution at room temperature for an hour. To set up the detecting chromagenic reaction, 100 μl of TMB substrate (TMB-microwell, BioFX, Cat. No. TMSK-1000-01) was added after washing the wells three times using PBS. The plates were incubated for 30 minutes before 650 stop solution (100 μl/well, BioFX, Cat. No. BSTP-0100-01) was added to terminate the reaction. The light absorbance at […] was determined by a Spectramax Plus reader.

human Angiopoietin-2 [2] = biological target: T1, human Angiopoietin-2; experiment: Biacore, mAb immobilized, 8 h dissociation
human Angiopoietin-2 [3] = biological target: T1, human Angiopoietin-2; experiment: FACS: inhibition of Ang-2 binding to HEK293F/Tie2 cells
Method: Cell suspension of 4 million cells/mL in FACS Buffer were prepared, and then aliquoted to a 96-well polypropylene plate with 50 ul per well. […] Cells were washed by centrifuging the plate at 1,200 rpm for 5 minutes, removing the supernatant by aspirating, and resuspending the cells with 200 ul per well of FACS Buffer. Washing procedures were repeated twice. The cells were then suspended with 100 ul of mouse Anti-6×-Histidine antibody diluted to 2 ug/ml in FACS Buffer, and incubated at room temperature for 30 minutes. After washing, the cells were suspended in 100 ul of PE-conjugated goat anti-mouse-IgG, which was diluted 1:100 in FACS Buffer, for incubation at room temperature for 30 minutes. The volume of the samples were brought to 300 ul with FACS Buffer, and measured with FACS Calibur.

human Angiopoietin-2 [4] = biological target: T1, human Angiopoietin-2; experiment: high resolution Biacore, mAb immobilized, 1st experiment
Method: (§1) The mAb was then immobilized on flow cells 1-3 (CM5 Biacore chip) using routine amine coupling, leaving flow cell 4 as the reference flow cell.
(§2) The antibody surfaces were regenerated with a 6-second pulse of 15 mM NaOH after each injection cycle.
(§3) The sample injections alternated with three blank injection cycles. Each surface was regenerated with a 6-second pulse of 15 mM NaOH after each long off-rate injection cycle.

human Angiopoietin-2 [5] = biological target: T1, human Angiopoietin-2; experiment: high resolution Biacore, 1st experiment; kd held constant (*)
Method: as §1, §2, §3

human Angiopoietin-2 [6] = biological target: T1, human Angiopoietin-2; experiment: KinExA, KD-controlled titration; KinExA, KD-controlled titration, 5 days at ~24 C
Method: For this purpose, a KinExA 3000 instrument was utilized. […] The beads were then centrifuged and washed once with blocking buffer (1×PBS, 10 mg/ml BSA), centrifuged again, and then incubated in blocking buffer for one hour at 24° C. After blocking, the beads were diluted in approximately 30 mL of HBS buffer (0.01 M Hepes, 0.15 M NaCl, pH 7.4) in a standard KinExA bead reservoir vial and placed on the instrument.
The KinExA instrument method used for the analysis of these solutions consisted of a bead packing step in which the PMMA beads were packed into a glass capillary, and the equilibrated solutions were flowed through the bead column at 0.25 mL/min for 6 min (1.5 mL) in duplicate. […] The fluorescence emission from the bead pack was measured at 670 nm with excitation at 620 nm. The resulting fluorescence measurements were converted into “% free nab binding site” versus total antigen concentration using the accompanying KinExA software package (version 1.0.3, Sapidyne, Inc.). The resulting KD-controlled titration curve was fit with the KinExA software to a 1:1 equilibrium isotherm with a drift correction factor included.

EC50 (human Angiopoietin-2 [1]) [µg/mL] | Efficacy (ratio of bound Ang-2 with mAb 30 µg/ml versus without) (human Angiopoietin-2 [1]) [ratio] | Binder | further results
2.7 | 0.389 | mAb 5.28.1 (antibody, V domains shown, Human hybridoma IgG (XenoMouse); also called x5.28) VH: EVQLVESGGIVVQPGGSLRLSCAASGFTFDDYTMHWVRQTPGKGLEWVSLISWDGGSTYYADSVKGRFTISRDNSKNSLYLQMNSLRTEDTALYYCAKDIDIAVAGTGFDHWGQGTLVTVSS VL: EIVMTQSPATLSVSPGERATLSCRASQSVTSNLAWYQQKPGQAPRLLIYGALIRATGIPARFSGSGSGTEFTLTISSLQSEDFAVYYCQQYNNWPFTFGPGTKVDIKR | binding result (mouse Angiopoietin-2): no binding (tested: 100 µg/ml)
 |  | mAb 5.35.1 (antibody, V domains shown, Human hybridoma IgG (XenoMouse); also called x5.35) VH: EVQLVESGGGVVRPGGSLRLSCTTSGFTFDDYGMSWVRQAPGKGLEWVSGINWNGGSTVYADSVKGRFTISRDSAKNSLYLQMNSLRAEDTALYHCARNKQWLWYFDLWGRGTLVTVSS VL: EIVMTQSPATLSVSPGERATLSCRASQSVSSNLAWYQQKPGQAPRLLIYGASTRATGIPARFSGSGSGTEFTLTISSLQSEDFAVYYCEQYNNWPLTFGGGTKVEIKR | Kd (human Angiopoietin-2 [2]): 0.00331 nM; koff (human Angiopoietin-2 [2]): 1.87e-06 s⁻¹; kon (human Angiopoietin-2 [2]): 564000 M⁻¹ s⁻¹
0.376 | 0.364 | mAb 5.101.1 (antibody, V domains shown, Human hybridoma IgG (XenoMouse); also called x5.101) VH: not shown VL: EIVMTQSPATLSVSPGERATLSCRASQSLISNLAWYQQKPGQAPRLLIFGASTRATGIPARFSGSGSGTEFTLTISSLQSEDFAVYYCHQYNNWWTFGQGTKVEIKR | 
0.0417 | 0.375 | mAb 3.31.2 (antibody, V domains shown, Human hybridoma IgG (XenoMouse); also called x3.31) VH: EVQLVESGGGLVQPGGSLRLSCAASGFTFSSYWMSWVRQAPGKGLEWVANIKQDGSDKYYVDSVKGRFTISRDNAKNSLYLRMNSLRAEDTAVFYCARDMGSGWFDYWGQGTLVTVSS VL: EVVMTQSPATLSVSPGERATLSCRASQSVGSNLAWYQQKPGQAPRLLIYGASTRATGIPARFSGSGSGTEFTLTISSLQSEDFAVYCCQQYNHWWTFGQGTKVEIKR | 
0.156 | 0.403 | mAb 5.88.3 (antibody, V domains shown, Human hybridoma IgG (XenoMouse); also called x5.88) VH: EVQMVESGGGLVQPGGSLRLSCAASGFTLRSYWMSWVRQAPGKGLEWVANIKEDGSEKYHVDSVKGRFTISRDNAENSLFLQMSSLRAEDTAVYYCARDMEASAGLFDYWGQGTLVTVSS VL: EIVMTQSPATLSVSPGERAILSCRASQSISSNLAWYQQKPGQAPRLLIYGASTRATGIPARFSGSGSGTEFTLTISSLQSEDFAVYYCQQYNYWWTFGQGTKVEIKR | 
0.168 | 0.388 | mAb 3.3.2 (antibody, V domains shown, Human hybridoma IgG (XenoMouse); also called 3.3.1; x3.3) VH: EVQLVESGGGLVQPGGSLRLSCAVSGFTFSSYWMSWVRQAPGKGLEWVANIKQDGSEKYYVDSVKGRFTISRDNAKNSLYLQMNSLRAEDTAVYYCARDQGIAVAGPFDYWGQGTLVTVSS VL: EIVMTQSPATLSVSPGERATLSCRASQTVSSDLAWYQQKPGQAPRLLIYGASIRATGIPARFSGSGSGTEFTLTISSLQSEDFAVYSCQQYYNWWTFGQGTKVEIKR | 
0.798 | 0.395 | mAb 3.19.3 (antibody, V domains shown, Human hybridoma IgG (XenoMouse); also called x3.19) VH: QVQLVESGGGVVQPGRSLRLSCAASGFTFTNYGMHWGRQAPGKGLEWVAVISHDGNNKYYVDSVKGRFTISRDNSKNTLYLQMNSLRAEDTAVYYCAREGIDFWSGLNWFDPWGQGTLVTVSS VL: EIVLTQSPGTLSLSPGERATLSCRASQSITGSYLAWYQQKPGQAPRLLICGASSWATGIPDRFSGSGSGTDFTLTISRLEPEDFAVYYCQQYSSSPITFGQGTRLEIKR | EC50 (human Angiopoietin-2 [3]): 0.731 nM; Kd (human Angiopoietin-2 [4]): 0.0053 nM; kon (human Angiopoietin-2 [4]): 189000 M⁻¹ s⁻¹; koff (human Angiopoietin-2 [5]): ~1e-06 s⁻¹; Kd (human Angiopoietin-2 [6]): 0.0864 nM; EC50 (read off the curve) (mouse Angiopoietin-2): ~1 µg/mL
0.133 | 0.384 | mAb 5.86.1 (antibody, V domains shown, Human hybridoma IgG (XenoMouse); also called x5.86) VH: QVQLVQSGAEVKKPGASVKVSCKASGYTFTGYHMYWVRQAPGQGLEWLGWINPNSGGTNYAQKFQGRVTMTRDTSISTAYMELSRLRSDDTAVYYCVRDQGIAAAGPFDYWCQGTLVTVSS VL: DIRMTQSPSSLSASVGDRVTITCRASQRISTYLNWYQQKPGKAPKFLIYAASSLQSGVPSRFSGSGSGTDFTLTISSLQPEDFATYYCQQSYTTPFTFGPGTKVDIKR | 
0.364 | 0.232 | mAb 5.103.1 (antibody, V domains shown, Human hybridoma IgG (XenoMouse); also called 5.103.3; x5.103) VH: QVQLVQSGAEVKKPGASVKVSCKASGYTFTGYYLYWVPQAPGQGLEWMGWISPNSGGTNYAQKFQGRVTMTRDTSISTAYMELSRLRSDDTAVYYCARDQVIAVAGPFDYWAQGTLVTVSS VL: not shown | 
